From publication PMC12380113

Assays:
[1] = target: T1, CD34 (mouse orbital fibroblasts) (Mus musculus) (UniProt Q64314); assay: flow cytometry; conditions: whole-cell binding to mouse orbital fibroblasts, 4 C, 1 h, SELEX binding buffer: DPBS, 4.5 mg/mL D-glucose, 5 mM MgCl2, 1 mg/mL BSA, 1 mg/mL yeast tRNA, flow cytometry at 4 C, pull-down lysis buffer 5 mM …
T1 sequence: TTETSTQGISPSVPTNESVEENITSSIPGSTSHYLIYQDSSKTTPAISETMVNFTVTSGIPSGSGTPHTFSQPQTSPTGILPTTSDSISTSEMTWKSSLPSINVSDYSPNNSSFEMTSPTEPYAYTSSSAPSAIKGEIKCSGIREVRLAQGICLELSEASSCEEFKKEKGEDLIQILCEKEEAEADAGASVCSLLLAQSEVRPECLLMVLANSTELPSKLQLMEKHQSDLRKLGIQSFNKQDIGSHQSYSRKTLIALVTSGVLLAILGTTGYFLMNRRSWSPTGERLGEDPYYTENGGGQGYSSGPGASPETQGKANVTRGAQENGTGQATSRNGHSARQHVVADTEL

[2] = target: T2, CD34 (human orbital fibroblasts) (Homo sapiens) (UniProt P28906); assay: flow cytometry; conditions: whole-cell binding to human orbital fibroblasts, 4 C, 1 h, SELEX binding buffer: DPBS, 4.5 mg/mL D-glucose, 5 mM MgCl2, 1 mg/mL BSA, 1 mg/mL yeast tRNA, flow cytometry at 4 C, pull-down lysis buffer 5 mM …
T2 sequence: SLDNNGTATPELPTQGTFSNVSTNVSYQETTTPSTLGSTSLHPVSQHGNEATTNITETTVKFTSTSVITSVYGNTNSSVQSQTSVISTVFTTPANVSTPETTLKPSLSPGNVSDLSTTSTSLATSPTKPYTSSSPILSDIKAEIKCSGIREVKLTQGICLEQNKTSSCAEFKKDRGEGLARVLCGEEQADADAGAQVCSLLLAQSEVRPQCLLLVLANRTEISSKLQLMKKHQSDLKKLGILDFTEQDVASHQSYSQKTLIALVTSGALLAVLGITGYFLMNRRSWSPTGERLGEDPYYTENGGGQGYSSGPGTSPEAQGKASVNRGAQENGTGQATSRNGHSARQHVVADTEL

CAGCACCGTCAACTGAATCTCATTGCGGCGTCCGGCTGGACGTTATTGTTGGAACCGTGATGCGATGGAGATGT [CD34 Apt (FAM)]
Kd [1]: 90.3 nM | Kd [2]: 19.1 nM
